Experimental data: US20240269235A1 (Gilead, published 2024)
Changes are numbered by the printed parent chain.

B1: Fc-IL-2v heterodimer 82.46 (hIL-2v_Δ1-5_R38A_C125S) (Fc fusion)
chain 1: ESKYGPPCPPCPAPEAAGGPSVFLFPPKPKDTLMISRTPEVTCVVVDVSQEDPEVQFNWYVDGVEVHNAKTKPREEQFNSTYRVVSVLTVLHQDWLNGKEYKCKVSNKGLPSSIEKTISKAKGQPREPQVYTLPPSQEEMTKNQVSLWCLVKGFYPSDIAVEWESNGQPENNYKTTPPVLDSDGSFFLYSRLTVDKSRWQEGNVFSCSVMHEALHNHYTQKSLSLSLGGGGGSGGGGSGGGGSGGGGSSTKKTQLQLEHLLLDLQMILNGINNYKNPKLTAMLTFKFYMPKKATELKHLQCLEEELKPLEEVLNLAQSKNFHLRPRDLISNINVIVLELKGSETTFMCEYADETATIVEFLNRWITFSQSIISTLT
chain 2: ESKYGPPCPPCPAPEAAGGPSVFLFPPKPKDTLMISRTPEVTCVVVDVSQEDPEVQFNWYVDGVEVHNAKTKPREEQFNSTYRVVSVLTVLHQDWLNGKEYKCKVSNKGLPSSIEKTISKAKGQPREPQVYTLPPSQEEMTKNQVSLSCAVKGFYPSDIAVEWESNGQPENNYKTTPPVLDSDGSFFLVSRLTVDKSRWQEGNVFSCSVMHEALHNRFTQKSLSLSLGK
notes: hIgG4 knob-in-hole Fc heterodimer, one IL-2v on the knob chain
B2: Fc-IL-2v heterodimer 84.46 (hIL-2v_Δ1-5_T41A_C125S) (Fc fusion)
chain 1: B1 chain 1 with A281R, T284A
chain 2: B1 chain 2
notes: as for B1
B3: Fc-IL-2v heterodimer 91.46 (hIL-2v_Δ1-5_E68A_C125S) (Fc fusion)
chain 1: B1 chain 1 with A281R, E311A
chain 2: B1 chain 2
notes: as for B1
B4: Fc-IL-2v heterodimer 85.46 (hIL-2v_Δ1-5_F42G_C125S) (Fc fusion)
chain 1: B1 chain 1 with A281R, F285G
chain 2: B1 chain 2
notes: as for B1
B5: Fc-IL-2v heterodimer 88.46 (hIL-2v_Δ1-5_Y45A_C125S) (Fc fusion)
chain 1: B1 chain 1 with A281R, Y288A
chain 2: B1 chain 2
notes: as for B1
B6: Fc-IL-2v heterodimer 92.46 (hIL-2v_Δ1-5_L72G_C125S) (Fc fusion)
chain 1: B1 chain 1 with A281R, L315G
chain 2: B1 chain 2
notes: as for B1
B7: Fc-IL-2v heterodimer 93.46 (hIL-2v_Δ1-5_Q74G_C125S) (Fc fusion)
chain 1: B1 chain 1 with A281R, Q317G
chain 2: B1 chain 2
notes: as for B1
B8: Fc-IL-2v heterodimer 112.46 (hIL-2v_Δ1-5_R38G_Y45G_E62A_C125S) (Fc fusion)
chain 1: B1 chain 1 with A281G, Y288G, E305A
chain 2: B1 chain 2
notes: as for B1
B9: Fc-IL-2v heterodimer 109.46 (hIL-2v_Δ1-5_F42A_Y45G_E61A_C125S) (Fc fusion)
chain 1: B1 chain 1 with A281R, F285A, Y288G, E304A
chain 2: B1 chain 2
notes: as for B1
B10: Fc-IL-2v heterodimer 116.46 (hIL-2v_Δ1-5_R38G_E61A_E62A_C125S) (Fc fusion)
chain 1: B1 chain 1 with A281G, E304A, E305A
chain 2: B1 chain 2
notes: as for B1
B11: Fc-IL-2v heterodimer 115.46 (hIL-2v_Δ1-5_F42A_E61A_E62A_C125S) (Fc fusion)
chain 1: B1 chain 1 with A281R, F285A, E304A, E305A
chain 2: B1 chain 2
notes: as for B1
B12: Fc-IL-2v heterodimer 110.46 (hIL-2v_Δ1-5_R38G_Y45G_E61A_C125S) (Fc fusion)
chain 1: B1 chain 1 with A281G, Y288G, E304A
chain 2: B1 chain 2
notes: as for B1
B13: Fc-IL-2v heterodimer 111.46 (hIL-2v_Δ1-5_R38G_F42A_E61A_C125S) (Fc fusion)
chain 1: B1 chain 1 with A281G, F285A, E304A
chain 2: B1 chain 2
notes: as for B1
B14: Fc heterodimer without a fused IL-2 moiety (heterodimer name: 260:261) (other)
chain 1: B1 chain 2 with S148W, A150L, V189Y, R217H, F218Y
chain 2: B1 chain 2
notes: negative control; also called control Fc protein with no IL-2 fusion

biological target: T1, trimeric murine IL-2 receptor (IL-2Rα, IL-2Rβ, and IL-2Rγ) on CTLL-2 cells (murine, UniProt P01590 22-268; P16297 27-539; P34902 23-369); test: cell-based or functional assay
T1 sequence (looked up) 1: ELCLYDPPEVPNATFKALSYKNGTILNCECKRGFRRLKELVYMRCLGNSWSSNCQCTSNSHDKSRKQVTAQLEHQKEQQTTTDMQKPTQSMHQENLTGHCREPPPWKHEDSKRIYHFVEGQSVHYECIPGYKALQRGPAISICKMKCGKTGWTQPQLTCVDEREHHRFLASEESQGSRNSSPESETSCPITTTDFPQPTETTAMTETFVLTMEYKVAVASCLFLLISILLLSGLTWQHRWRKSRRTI
T1 sequence (looked up) 2: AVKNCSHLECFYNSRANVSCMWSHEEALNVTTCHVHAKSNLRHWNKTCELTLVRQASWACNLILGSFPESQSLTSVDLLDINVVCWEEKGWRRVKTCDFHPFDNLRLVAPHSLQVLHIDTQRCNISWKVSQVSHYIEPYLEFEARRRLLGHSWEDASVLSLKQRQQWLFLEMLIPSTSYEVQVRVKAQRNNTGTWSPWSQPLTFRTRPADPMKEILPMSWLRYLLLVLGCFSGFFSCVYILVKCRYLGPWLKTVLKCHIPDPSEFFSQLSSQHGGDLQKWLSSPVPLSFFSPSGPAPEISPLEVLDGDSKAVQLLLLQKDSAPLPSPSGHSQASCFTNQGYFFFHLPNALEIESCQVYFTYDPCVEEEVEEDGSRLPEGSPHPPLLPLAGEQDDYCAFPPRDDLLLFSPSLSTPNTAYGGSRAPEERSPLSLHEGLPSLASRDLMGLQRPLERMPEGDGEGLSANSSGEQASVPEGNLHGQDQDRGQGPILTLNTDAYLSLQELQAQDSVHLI
T1 sequence (looked up) 3: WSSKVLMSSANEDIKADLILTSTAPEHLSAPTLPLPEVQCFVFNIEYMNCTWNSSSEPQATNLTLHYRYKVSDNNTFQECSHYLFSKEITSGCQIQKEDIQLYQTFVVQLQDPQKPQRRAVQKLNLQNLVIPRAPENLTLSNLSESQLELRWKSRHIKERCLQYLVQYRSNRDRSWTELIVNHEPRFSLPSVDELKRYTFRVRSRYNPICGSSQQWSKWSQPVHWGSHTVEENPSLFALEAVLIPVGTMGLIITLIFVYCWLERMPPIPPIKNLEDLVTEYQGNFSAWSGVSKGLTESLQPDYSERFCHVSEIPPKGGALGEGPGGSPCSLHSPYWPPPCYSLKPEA

Binder	STAT5 activation of CTLL-2 cells, EC50 [nM]
B1	0.01
B2	0.03
B3	0.001
B4	5.5
B5	0.1
B6	0.7
B7	0.002

biological target: T2, human IL-2Rα on Treg cells (CD3+, CD4+, CD25hi, FoxP3+) of human PBMC (human, UniProt P01589 22-272); test: cell-based or functional assay
T2 sequence (looked up): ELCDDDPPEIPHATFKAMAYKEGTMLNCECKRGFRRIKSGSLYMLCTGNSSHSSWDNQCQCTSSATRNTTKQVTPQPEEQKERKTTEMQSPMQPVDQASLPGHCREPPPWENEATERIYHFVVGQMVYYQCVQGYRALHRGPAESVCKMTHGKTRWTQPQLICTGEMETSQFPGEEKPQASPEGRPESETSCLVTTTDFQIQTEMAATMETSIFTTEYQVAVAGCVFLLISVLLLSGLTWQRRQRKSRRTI

Binder	Treg EC50, STAT5 activation (PBMC STAT5 assay) [nM]
B1	< 0.001
B2	< 0.001
B3	< 0.001
B4	0.06
B5	< 0.001
B6	< 0.001
B7	< 0.001

biological target: T1, trimeric murine IL-2 receptor (IL-2Rα, …); test: cell-based or functional assay; remark: another data set of the same source

Binder	STAT5 activation of CTLL-2 cells, EC50 [nM]
B8	13.1
B9	36.2
B10	16.3
B11	67.1
B12	1.5
B13	11

biological target: T3, IL-2Rβγ heterodimer, custom biotinylated Fc fusion protein (human IL-2Rβ 27-240-Fc-FLAG / human IL-2Rγ … (human, site-specific biotinylation at the AviTag)); test: SPR (Biacore), CM4 chip, biotinylated receptor on neutravidin
T3 construct: Extracellular regions fused to IgG1 knob-in-hole Fc subunits with tags; also called IL-2 receptor βγ heterodimer; Fc-IL-2Rβγ
Description: Fc-IL-2 variant binding data was collected on a Biacore platform using a CM4 chip. Neutravidin was immobilized using standard amine coupling methods and used to capture biotinylated receptors. The source, preparation and immobilization of biotinylated IL-2Rα and IL-2Rβγ heterodimer was as described in Example 4. Proleukin was used as a comparator. Fc-IL-2 variants and Proleukin were injected at various concentrations over these surfaces. Kinetic data obtained from these injections was used to extract kₒₙ and koff to calculate KD (KD=Koff/kₒₙ).

T3 sequence (chain, as listed by the source limits assumed): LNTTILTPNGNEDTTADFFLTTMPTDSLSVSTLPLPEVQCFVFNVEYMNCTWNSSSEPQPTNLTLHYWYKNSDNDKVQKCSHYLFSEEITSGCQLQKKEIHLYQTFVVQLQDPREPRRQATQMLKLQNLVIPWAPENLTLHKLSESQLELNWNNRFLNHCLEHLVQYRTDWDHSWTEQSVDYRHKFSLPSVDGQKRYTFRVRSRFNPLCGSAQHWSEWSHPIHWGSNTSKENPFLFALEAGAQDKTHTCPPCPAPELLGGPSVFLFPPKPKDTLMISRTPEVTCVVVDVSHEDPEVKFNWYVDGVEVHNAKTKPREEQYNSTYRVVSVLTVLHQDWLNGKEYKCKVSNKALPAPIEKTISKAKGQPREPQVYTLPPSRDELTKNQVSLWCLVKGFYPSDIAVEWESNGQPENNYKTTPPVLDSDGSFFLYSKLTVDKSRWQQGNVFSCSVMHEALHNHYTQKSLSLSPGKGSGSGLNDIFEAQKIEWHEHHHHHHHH

Binder	Kd [nM]
B8	0.066
B9	0.056
B10	0.115
B11	0.093
B12	0.059
B13	0.069

biological target: T4, IL-2Rα (recombinant IL-2 receptor α, R&D Systems Cat #: 223-2A/CF), biotinylated (human, UniProt P01589 22-213, limits assumed, biotinylated using sulfo-NHS-LC-LC-Biotin); test: SPR (Biacore), C1 or CM5 chip, biotinylated receptor on neutravidin
T4 construct: Bought reagent; also used here as the IL-2Rα partner of the in-silico analysis of PDB 2B5I (another construct); also called IL-2RA; CD25
T4 sequence (looked up): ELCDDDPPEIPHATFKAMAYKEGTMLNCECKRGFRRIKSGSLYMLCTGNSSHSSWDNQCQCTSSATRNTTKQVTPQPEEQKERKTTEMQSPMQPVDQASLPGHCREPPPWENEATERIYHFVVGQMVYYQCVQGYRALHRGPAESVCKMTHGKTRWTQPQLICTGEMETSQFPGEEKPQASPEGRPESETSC
Description: (§1) Data for binding of Fc-IL-2 variant fusion proteins to IL-2Rα, IL-2Rβ and IL-2Rβγ heterodimer were collected on a Biacore platform using either C1 or CM5 chips. Neutravidin was immobilized using standard amine coupling methods and used to capture biotinylated receptors. Commercially sourced IL-2Rα (R&D Systems Cat #: 223-2A/CF) and IL-2Rβ receptors (R&D Systems Cat #:224-2B-025/CF) were biotinylated using sulfo-NHS-LC-LC-Biotin, desalted, and then captured on the neutravidin surfaces. […] Distinct purification tags were appended to the C-terminus of each chain. A FLAG epitope tag ([…]; SEQ ID NO: 257) was added at the C-terminus of IL-2Rβ subunit, followed by C-terminal Hiss tag ([…]; SEQ ID NO: 258). An AviTag™ ([…]; SEQ ID NO: 259) motif on the IL-2Rγ subunit allowed for site-specific biotinylation of the heterodimer.
(§2) Fc IL 2 fusion protein variants, Fc protein, and Proleukin were injected at various concentrations over these surfaces. Kinetic data obtained from these injections was used to extract kₒₙ and koff to calculate KD (KD=koff/kₒₙ). Experiments were run at 25° C. in HBS-EP+ running buffer (10 mM HEPES, 150 mM NaCl, 3 mM EDTA, 0.05% Tween20, pH 7.4 with 0.1 mg/ml BSA). Data shown in Table 5 for Fc IL-2 fusion protein variants binding to the indicated IL-2R surfaces were derived from the global fitting of data obtained from 2-5 independent surfaces.

Binder	Kd [nM]	binding result
B1	108	–
B14	–	no binding
B2	119	–
B3	32	–
B4	4900	–
B5	120	–
B6	503	–
B7	21	–

biological target: T5, IL-2Rβ (recombinant IL-2 receptor β, R&D Systems Cat #:224-2B-025/CF), biotinylated (UniProt P14784 27-239, limits assumed, biotinylated using sulfo-NHS-LC-LC-Biotin); test: as above
T5 construct: Bought reagent; also called IL-2RB; CD122
T5 sequence (looked up): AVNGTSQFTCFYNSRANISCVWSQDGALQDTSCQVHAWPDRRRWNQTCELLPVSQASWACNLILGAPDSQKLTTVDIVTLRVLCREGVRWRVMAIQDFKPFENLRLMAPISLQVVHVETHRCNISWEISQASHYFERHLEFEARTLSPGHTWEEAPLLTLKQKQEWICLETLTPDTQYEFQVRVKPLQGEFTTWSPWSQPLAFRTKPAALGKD
Description: as §1, §2

Binder	Kd [nM]	binding result
B1	8200	–
B14	–	no binding
B2	7000	–
B3	5900	–
B4	7500	–
B5	8000	–
B6	8000	–
B7	8200	–

biological target: T3, IL-2Rβγ heterodimer, custom …; test: as above
Description: as §1, §2

Binder	binding result
B14	no binding
